Source: patent US20250339569A1 (3B PHARMACEUTICALS, published 2025)
Starred links: 1 amine or outer side, 2 acyl side, 3 side chain; linkers in the order of their positions; H or OH if unused. Positions of bridges follow the written chain, without caps; N, C: chain ends. Non-standard residues stand in square brackets, D forms with d. Primed or numbered codes have the meaning given here. *: point of attachment. Af3(2Ta5Sa) = 3-amino-L-phenylalanine, ring amine acylated by 5-sulfamoyl-thiophene-2-carboxylic acid, NS(=O)(=O)c1ccc(C(=O)Nc2cccc(C[C@H](N[*:1])C(=O)[*:2])c2)s1; Aph(2Ta5Sa) = 4-aminophenylalanine, ring amine acylated with 5-sulfamoylthiophene-2-carboxylic acid, NS(=O)(=O)c1ccc(C(=O)Nc2ccc(C[C@H](N[*:1])C(=O)[*:2])cc2)s1; Aph(3Ta5Sa) = 4-aminophenylalanine, ring amine acylated with 5-sulfamoylthiophene-3-carboxylic acid, NS(=O)(=O)c1cc(C(=O)Nc2ccc(C[C@H](N[*:1])C(=O)[*:2])cc2)cs1; Af3(HO-Glutar) = 3-aminophenylalanine acylated on the ring amine with glutaric acid (free COOH), O=C(CCCC(=O)[*:3])Nc1cccc(C[C@H](N[*:1])C(=O)[*:2])c1; Af3(3SaBz) = 3-aminophenylalanine, ring amine acylated with 3-sulfamoylbenzoic acid, NS(=O)(=O)c1cccc(C(=O)Nc2cccc(C[C@H](N[*:1])C(=O)[*:2])c2)c1; Aph(3SaBz) = 4-aminophenylalanine, ring amine acylated with 3-sulfamoylbenzoic acid, NS(=O)(=O)c1cccc(C(=O)Nc2ccc(C[C@H](N[*:1])C(=O)[*:2])cc2)c1; Aph(SaPr)(4) = 4-aminophenylalanine, ring amine acylated with 3-sulfamoylpropanoic acid, NS(=O)(=O)CCC(=O)Nc1ccc(C[C@H](N[*:1])C(=O)[*:2])cc1; Aph(SaPr) = 4-amino-L-phenylalanine, ring amine acylated by 3-sulfamoylpropanoic acid, NS(=O)(=O)CCC(=O)Nc1ccc(C[C@H](N[*:1])C(=O)[*:2])cc1; Af3(SaPr) = 3-aminophenylalanine, ring amine acylated with 3-sulfamoylpropanoic acid, NS(=O)(=O)CCC(=O)Nc1cccc(C[C@H](N[*:1])C(=O)[*:2])c1; Af3(HO-Succinyl)″ = 3-aminophenylalanine, ring amine acylated with succinic acid, O=C(CCC(=O)[*:3])Nc1cccc(C[C@H](N[*:1])C(=O)[*:2])c1; Phe(3-NHCO(CH2)3SO2NH2) = N[C@@H](Cc1cccc(NC(=O)CCCS(N)(=O)=O)c1)C(=O)O; APAc″ = 2-(4-(amino)piperidin-1-yl)acetic acid, NC1CCN(CC(=O)*)CC1; DOTA = O=C(O)CN1CCN(CC(=O)O)CCN(CC(=O)*)CCN(CC(=O)O)CC1; mXylylene = c1cc(C[*:1])cc(C[*:2])c1; APAc = not defined here; Dap = NC[C@H](N)C(=O)O

B1: 3BP-4488 (peptide)
peptide: {DOTA}-DCE[dP]D[Phe(3-NHCO(CH2)3SO2NH2)]LTW[Dap]C-NH2
modifications: lactam 1-10; linker 2-11 via mXylylene
SMILES: CC(C)C[C@@H]1NC(=O)[C@H](Cc2cccc(NC(=O)CCCS(N)(=O)=O)c2)NC(=O)[C@H](CC(=O)O)NC(=O)[C@H]2CCCN2C(=O)[C@H](CCC(=O)O)NC(=O)[C@@H]2CSCc3cccc(c3)CSC[C@@H](C(N)=O)NC(=O)[C@H](CNC(=O)C[C@H](NC(=O)CN3CCN(CC(=O)O)CCN(CC(=O)O)CCN(CC(=O)O)CC3)C(=O)N2)NC(=O)[C@H](Cc2c[nH]c3ccccc23)NC(=O)[C@H]([C@@H](C)O)NC1=O
B2: 3BP-4489 (peptide)
peptide: {DOTA}-DCE[dP]D[Aph(SaPr)]LTW[Dap]C-NH2
modifications: lactam 1-10; linker 2-11 via mXylylene
SMILES: CC(C)C[C@@H]1NC(=O)[C@H](Cc2ccc(NC(=O)CCS(N)(=O)=O)cc2)NC(=O)[C@H](CC(=O)O)NC(=O)[C@H]2CCCN2C(=O)[C@H](CCC(=O)O)NC(=O)[C@@H]2CSCc3cccc(c3)CSC[C@@H](C(N)=O)NC(=O)[C@H](CNC(=O)C[C@H](NC(=O)CN3CCN(CC(=O)O)CCN(CC(=O)O)CCN(CC(=O)O)CC3)C(=O)N2)NC(=O)[C@H](Cc2c[nH]c3ccccc23)NC(=O)[C@H]([C@@H](C)O)NC1=O

molecular target: T1, Fc-fusion protein of human carbonic anhydrase IX (human, UniProt Q16790 38-414); assay: SPR, captured hCAIX-Fc; pKD category A: >8.0

Binder | pKD [pkd]
{DOTA-APAc}-VDCE[dP]D[Phe(3-NHCO(CH2)3SO2NH2)]LTW[Dap]C-NH2 (lactam 2-11; linker 3-12 via mXylylene; reading uncertain) [3BP-4445] | > 8
{DOTA-APAc}-VYCE[dP]D[Phe(3-NHCO(CH2)3SO2NH2)]LTWSC-NH2 (linker 3-12 via mXylylene; reading uncertain) [3BP-4369] | > 8
{DOTA-APAc}-VYCE[dP]D[Aph(3Ta5Sa)]LTWSC-NH2 (linker 3-12 via mXylylene; reading uncertain) [3BP-4401] | > 8
{DOTA-APAc″}-VYCE[dP]D[Af3(HO-Glutar)]LTWSC-NH2 (linker 3-12 via mXylylene) [3BP-4367] | > 8
{DOTA-APAc}-VYCE[dP]D[Aph(SaPr)(4)]LTWSC-NH2 (linker 3-12 via mXylylene; reading uncertain) [3BP-4400] | > 8
{DOTA-APAc}-VDCE[dP]D[Af3(HO-Succinyl)″]LTW[Dap]C-NH2 (lactam 2-11; linker 3-12 via mXylylene; reading uncertain) [3BP-4377] | > 8
{DOTA-APAc}-VYCE[dP]D[Af3(SaPr)]LTWSC-NH2 (linker 3-12 via mXylylene; reading uncertain) [3BP-4407] | > 8
{DOTA-APAc}-VYCE[dP]D[Aph(3SaBz)]LTWSC-NH2 (linker 3-12 via mXylylene; reading uncertain) [3BP-4408] | > 8
{DOTA-APAc}-VYCE[dP]D[Af3(2Ta5Sa)]LTWSC-NH2 (linker 3-12 via mXylylene; reading uncertain) [3BP-4413] | > 8
{DOTA-APAc}-VYCE[dP]D[Af3(3SaBz)]LTWSC-NH2 (linker 3-12 via mXylylene; reading uncertain) [3BP-4409] | > 8
B1 | > 8
B2 | > 8
{DOTA-APAc}-VYCE[dP]D[Aph(2Ta5Sa)]LTWSC-NH2 (linker 3-12 via mXylylene; reading uncertain) [3BP-4402] | > 8

molecular target: T1, Fc-fusion protein of human carbonic …; assay: SPR, captured hCAIX-Fc; t1/2 category A: >15.0 min
Experimental: Stock solutions of test compounds were prepared by dissolving each compound in DMSO. DMSO stock solution were diluted 1:1000 in Running Buffer without DMSO. […] SPR binding analyses were performed in Single Cycle Kinetic (SCK) mode at 25° C.
For each test compound, SPR raw data in the form of resonance units (RU) were plotted as sensorgrams using the Biacore™ T200 control software. The signal from the blank sensorgram was subtracted from that of the test compound sensorgram (blank corrected). The blank corrected sensorgram was corrected for baseline drift by subtracting the sensorgram of a SCK run without the test compound (running buffer only). […] Raw data and fit results were imported as text files in IDBS. The pKD value (negative decadic logarithm of dissociation constant) was calculated in the IDBS excel template.

Binder | t1/2 (half-life of the complex, SPR) [min]
{DOTA-APAc}-VDCE[dP]D[Phe(3-NHCO(CH2)3SO2NH2)]LTW[Dap]C-NH2 (lactam 2-11; linker 3-12 via mXylylene; reading uncertain) [3BP-4445] | > 15
{DOTA-APAc}-VYCE[dP]D[Phe(3-NHCO(CH2)3SO2NH2)]LTWSC-NH2 (linker 3-12 via mXylylene; reading uncertain) [3BP-4369] | > 15
{DOTA-APAc}-VYCE[dP]D[Aph(3Ta5Sa)]LTWSC-NH2 (linker 3-12 via mXylylene; reading uncertain) [3BP-4401] | > 15
{DOTA-APAc″}-VYCE[dP]D[Af3(HO-Glutar)]LTWSC-NH2 (linker 3-12 via mXylylene) [3BP-4367] | > 15
{DOTA-APAc}-VYCE[dP]D[Aph(SaPr)(4)]LTWSC-NH2 (linker 3-12 via mXylylene; reading uncertain) [3BP-4400] | > 15
{DOTA-APAc}-VDCE[dP]D[Af3(HO-Succinyl)″]LTW[Dap]C-NH2 (lactam 2-11; linker 3-12 via mXylylene; reading uncertain) [3BP-4377] | > 15
{DOTA-APAc}-VYCE[dP]D[Af3(SaPr)]LTWSC-NH2 (linker 3-12 via mXylylene; reading uncertain) [3BP-4407] | > 15
{DOTA-APAc}-VYCE[dP]D[Aph(3SaBz)]LTWSC-NH2 (linker 3-12 via mXylylene; reading uncertain) [3BP-4408] | > 15
{DOTA-APAc}-VYCE[dP]D[Af3(2Ta5Sa)]LTWSC-NH2 (linker 3-12 via mXylylene; reading uncertain) [3BP-4413] | > 15
{DOTA-APAc}-VYCE[dP]D[Af3(3SaBz)]LTWSC-NH2 (linker 3-12 via mXylylene; reading uncertain) [3BP-4409] | > 15
B1 | > 15
B2 | > 15
{DOTA-APAc}-VYCE[dP]D[Aph(2Ta5Sa)]LTWSC-NH2 (linker 3-12 via mXylylene; reading uncertain) [3BP-4402] | > 15

molecular target: human carbonic anhydrase IX (CAIX) (human, UniProt Q16790 38-459); assay: FACS competition, HT-29 cells, tracer 3BP-4149; pIC50 category A: >8.0
Experimental: CAIX-expressing human HT-29 colorectal cancer cells (DSMZ, RRID: CVCL_0320) were cultured in McCoys's 5A modified medium (Biochrom, #F1015) including 10% fetal calf serum (FCS), 2 mM L-glutamine, 100 U/ml penicillin and 100 μg/mL streptomycin. Cells were detached with Accutase (Biolegend, #423201) and washed in FACS buffer (PBS including 1% FCS). Cells were diluted in FACS buffer to a final concentration of 500.000 cells per ml. 200 μL of the cell suspension were transferred to a u-shaped non-binding 96-well plate (Greiner) and cells were washed in ice-cold FACS buffer.
When biotinylated compounds were used an additional incubation step with 1 μg/mL APC-Streptavidin (Miltenyi; #130-106-791) in 50 μL FACS buffer for 30 minutes on ice was performed.
Cells were washed twice with ice-cold FACS buffer and analyzed in an Attune NxT flow cytometer (Thermo Fisher). Median fluorescence intensities (MFI) of the APC/Cy5-channel were calculated by Attune NxT software.

Binder | pIC50 [pic50]
{DOTA-APAc}-VDCE[dP]D[Phe(3-NHCO(CH2)3SO2NH2)]LTW[Dap]C-NH2 (lactam 2-11; linker 3-12 via mXylylene; reading uncertain) [3BP-4445] | > 8
{DOTA-APAc}-VYCE[dP]D[Phe(3-NHCO(CH2)3SO2NH2)]LTWSC-NH2 (linker 3-12 via mXylylene; reading uncertain) [3BP-4369] | > 8
{DOTA-APAc}-VYCE[dP]D[Aph(3Ta5Sa)]LTWSC-NH2 (linker 3-12 via mXylylene; reading uncertain) [3BP-4401] | > 8
{DOTA-APAc″}-VYCE[dP]D[Af3(HO-Glutar)]LTWSC-NH2 (linker 3-12 via mXylylene) [3BP-4367] | > 8
{DOTA-APAc}-VYCE[dP]D[Aph(SaPr)(4)]LTWSC-NH2 (linker 3-12 via mXylylene; reading uncertain) [3BP-4400] | > 8
{DOTA-APAc}-VDCE[dP]D[Af3(HO-Succinyl)″]LTW[Dap]C-NH2 (lactam 2-11; linker 3-12 via mXylylene; reading uncertain) [3BP-4377] | > 8
{DOTA-APAc}-VYCE[dP]D[Af3(SaPr)]LTWSC-NH2 (linker 3-12 via mXylylene; reading uncertain) [3BP-4407] | > 8
{DOTA-APAc}-VYCE[dP]D[Aph(3SaBz)]LTWSC-NH2 (linker 3-12 via mXylylene; reading uncertain) [3BP-4408] | > 8
{DOTA-APAc}-VYCE[dP]D[Af3(2Ta5Sa)]LTWSC-NH2 (linker 3-12 via mXylylene; reading uncertain) [3BP-4413] | > 8
{DOTA-APAc}-VYCE[dP]D[Af3(3SaBz)]LTWSC-NH2 (linker 3-12 via mXylylene; reading uncertain) [3BP-4409] | > 8
B1 | > 8
B2 | > 8
{DOTA-APAc}-VYCE[dP]D[Aph(2Ta5Sa)]LTWSC-NH2 (linker 3-12 via mXylylene; reading uncertain) [3BP-4402] | > 8
